Source: paper PMC314469, “Protein Interaction Networks by Proteome Peptide Scanning” (PLoS Biology, 2004)

B1: YOL138C 1121-1134 (peptide)
chain: IGSPRHAPSRPDSI
B2: YPR189W 306-319 (peptide)
chain: IKYFKKFPKDPLAM
B3: YOR070C 339-352 (peptide)
chain: IDIPRTNPHIPLYQ
B4: YJL095W 1392-1405 (peptide)
chain: IGKSKSAPPIPEDT
B5: YDR237W 35-48 (peptide)
chain: IDKSKLSPRFPELK
B6: YDL034W 13-26 (peptide)
chain: ILERKNIPRQPAIR
B7: YBL034C 850-863 (peptide)
chain: ILKNRMNPEKPYEL
B8: YDR448W 138-151 (peptide)
chain: IESFRERPLEPPRK
B9: YML105C 200-213 (peptide)
chain: IESLREIPYGPDFD
B10: YOL081W 29-42 (peptide)
chain: ILFERILPILPVES
B11: YDR243C 237-250 (peptide)
chain: IKMSRSPPRPPSLK
B12: YBL066C 354-367 (peptide)
chain: IFVTRYLPYFPIMY
B13: YER126C 197-210 (peptide)
chain: ILAVKKNPQSPMYT
B14: YCL047C 191-204 (peptide)
chain: ILEGKFEPVIPREW

Molecular target: T1, Yhr016c SH3 (YSC84_YEAST), P32793
T1 chain: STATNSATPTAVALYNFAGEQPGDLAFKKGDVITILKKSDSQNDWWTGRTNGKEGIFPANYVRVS
Assay: SPOT array

Binder | normalised SPOT signal, Boehringer light units (BLU); mean over the file's lines of this peptide
B1 | 57.9
B2 | 58.6
B3 | 0
B4 | 12.5
B5 | 22.5
B6 | 35.3
B7 | 55.5
B8 | 88.1
B9 | 1.9
B10 | 1500
B11 | 1780
B12 | 180
B13 | 22.6
B14 | 40.5

molecular target: Sho1 SH3 (SHO1_YEAST), P40073; assay: SPOT array
Sequence (P40073 295-366): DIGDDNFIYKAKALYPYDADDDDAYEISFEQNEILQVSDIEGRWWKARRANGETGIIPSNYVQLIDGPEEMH

Binder | normalised SPOT signal, Boehringer light units (BLU); mean over the file's lines of this peptide
B1 | 18.4
B2 | 276
B3 | 40.3
B4 | 6.7
B5 | 35.5
B6 | 99.1
B7 | 100
B8 | 55.1
B9 | 47.7
B10 | 5680
B11 | 223
B12 | 115
B13 | 25.9
B14 | 9.5

Molecular target: T2, Boi1 SH3 (BOI1_YEAST), P38041
T2 chain: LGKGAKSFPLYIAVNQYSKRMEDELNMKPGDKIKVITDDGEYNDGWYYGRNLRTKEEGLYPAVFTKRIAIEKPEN
Assay: SPOT array

Binder | normalised SPOT signal, Boehringer light units (BLU); mean over the file's lines of this peptide
B1 | 182
B2 | 132
B3 | 50.1
B4 | 74.3
B5 | 119
B6 | 1780
B7 | 327
B8 | 46.7
B9 | 16.4
B10 | 152
B11 | 1330
B12 | 60.7
B13 | 128
B14 | 53.6

Molecular target: T3, Yfr024 SH3 (LSB3_YEAST), P43603
T3 chain: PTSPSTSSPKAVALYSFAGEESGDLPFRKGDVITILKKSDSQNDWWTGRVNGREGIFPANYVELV
Assay: SPOT array

Binder | normalised SPOT signal, Boehringer light units (BLU); mean over the file's lines of this peptide
B1 | 1010
B2 | 304
B3 | 34.3
B4 | 42.9
B5 | 133
B6 | 354
B7 | 348
B8 | 2680
B9 | 2.6
B10 | 1840
B11 | 8250
B12 | 674
B13 | 69.6
B14 | 82.5

Molecular target: T4, Rvs167 SH3 (RV167_YEAST), P39743
T4 chain: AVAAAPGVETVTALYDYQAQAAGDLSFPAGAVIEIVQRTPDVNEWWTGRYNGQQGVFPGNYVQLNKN
Assay: SPOT array

Binder | normalised SPOT signal, Boehringer light units (BLU); mean over the file's lines of this peptide
B1 | 124
B2 | 85.2
B3 | 9.1
B4 | 26
B5 | 54.9
B6 | 138
B7 | 240
B8 | 163
B9 | 14.9
B10 | 457
B11 | 1150
B12 | 373
B13 | 26.4
B14 | 80

Molecular target: T5, Boi2 SH3 (BOI2_YEAST), P39969
T5 chain: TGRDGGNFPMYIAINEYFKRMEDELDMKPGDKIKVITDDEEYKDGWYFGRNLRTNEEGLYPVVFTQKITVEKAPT
Assay: SPOT array

Binder | normalised SPOT signal, Boehringer light units (BLU); mean over the file's lines of this peptide
B1 | 28.1
B2 | 9.4
B3 | 3.3
B4 | 58.9
B5 | 10.4
B6 | 19.9
B7 | 149
B8 | 120
B9 | 22
B10 | 16.2
B11 | 416
B12 | 1150
B13 | 26.2
B14 | 71.3

Molecular target: T6, Myo5 SH3 (MYO5_YEAST), Q04439
T6 chain: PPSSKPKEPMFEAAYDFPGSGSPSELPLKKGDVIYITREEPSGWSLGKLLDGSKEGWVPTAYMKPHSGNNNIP
Assay: SPOT array

Binder | normalised SPOT signal, Boehringer light units (BLU); mean over the file's lines of this peptide
B1 | 193
B2 | 237
B3 | 139
B4 | 244
B5 | 233
B6 | 603
B7 | 322
B8 | 98.7
B9 | 116
B10 | 340
B11 | 17700
B12 | 157
B13 | 175
B14 | 93.2
